Assay results as given in FireProtDB (doi:10.3390/ijms21030752).

Conditions: Homo sapiens, pH 7.5, Thermal, CD, Tris-HCl 20mM, whole UniProt chain shown

B1: Guanylyl cyclase-activating protein 1 wild type, P43080 (protein)
chain: MGNVMEGKSVEELSSTECHQWYKKFMTECPSGQLTLYEFRQFFGLKNLSPSASQYVEQMFETFDFNKDGYIDFMEYVAALSLVLKGKVEQKLRWYFKLYDVDGNGCIDRDELLTIIQAIRAINPCSDTTMTAEEFTDTVFSKIDVNGDGELSLEEFIEGVQKDQMLLDTLTRSLDLTRIVRRLQNGEQDEEGADEAAEAAG
Tm (KCL 150 mM): 49.8 °C | Tm (KCL and Mg2+ 150 mM and 1 mM): 50.3 °C
